T1: CRTH2R (UniProt Q9Y5Y4 1-395, limits assumed)
T1 sequence (looked up): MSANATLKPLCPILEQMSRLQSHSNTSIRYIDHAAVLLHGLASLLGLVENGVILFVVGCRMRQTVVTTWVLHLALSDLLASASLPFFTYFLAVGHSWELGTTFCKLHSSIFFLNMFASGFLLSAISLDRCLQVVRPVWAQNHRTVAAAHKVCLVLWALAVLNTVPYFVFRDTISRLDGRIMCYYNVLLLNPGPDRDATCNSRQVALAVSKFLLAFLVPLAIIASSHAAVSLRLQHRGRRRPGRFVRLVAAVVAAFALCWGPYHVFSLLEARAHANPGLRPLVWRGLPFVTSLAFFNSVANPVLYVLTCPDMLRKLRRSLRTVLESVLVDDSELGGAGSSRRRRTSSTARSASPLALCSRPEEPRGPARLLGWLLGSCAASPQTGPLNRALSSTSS

T2: human TIGIT (human, UniProt Q495A1 22-141, limits assumed)
T2 construct: also called hTIGIT
T2 sequence (looked up): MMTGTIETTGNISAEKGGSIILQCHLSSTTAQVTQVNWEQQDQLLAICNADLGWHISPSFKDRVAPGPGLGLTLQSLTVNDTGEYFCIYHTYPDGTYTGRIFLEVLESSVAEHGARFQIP


Experiments:
CRTH2R [1] = biological target: T1, CRTH2R; experiment: cell-based or functional assay
CRTH2R [2] = biological target: T1, CRTH2R; experiment: flow cytometry (MFI), CHO CRTH2R-positive cells against parental CHO cells, 3-fold titration from 100 nM; grey = CRTH2R cells, black = parental cells (no legend on the panel)
Procedure: Cell binding of anti-CRTH2R antibodies was determined by testing on CHO CRTH2R-positive cells (GFP+) and parental CHO cells (GFP−), comparing parental negative and target positive cells to rule out false-positives. Antibodies as listed in Table 14A were titrated starting at 100 nM (15 ug/mL) with 3-fold titrations, for a total of 8 points. Two antibodies (gPCR-51 and gPCR-52) were used as a positive control.

human TIGIT = biological target: T2, human TIGIT; experiment: monovalent affinity of the hTIGIT IgGs; method not named in Example 14

antagonist activity in PGD2-induced cAMP assay at 33 nM IgG (CRTH2R [1]) [%] | EC50 (CRTH2R [2]) [nM] | Binder | also measured
> 20 | 8.61 | CRTH2-74 (antibody, CRTH2R IgG) VH: QVQLVESGGGVVQPGRSLRLSCAASGFSFSEYGIHWVRQAPGKGLEWVAVISYEGSNEYYADSVKGRFTISRDNSKNTLYLQMNSLRAEDTAVYYCARANQHFGPVAGGATPSEEPGSQLTRAELGWDAPPGQESLADELLQLGTEHGYHYYGMDVWGQGTLVTVSS VL: QSVLTQPPSVSAAPGQKVTISCSGSTSNIGKNYVSWYQQLPGTAPKLLIYDDDERPSGIPDRFSGSMSGTSATLGITGLQTGDEADYYCEAWDADLSGAVFGGGTKLTVL | 
> 20 |  | CRTH2-28 (antibody, V domains shown) VH: QVQLVQSGAEVKKPGSSVNVSCKASGGTFSDYAFSWVRQAPGQGLEWMGAIIPFFGTVNYAQKFQGRVTITADESTSTAYMELSSLRSEDTAVYYCARDMYYDFATGTGGPEDDLYPQGELNDGYRIEVVPADDAFDIWGQGTLVTVSS VL: QSVLTQPPSVSAAPGQKVTISCSGSISNIGKNYVSWYQQLPGTAPKLLIYDDHKRPSGIPDRFSGSKSGTSATLGITGLQTGDEADYYCATWDRGLSAAVFGGGTKLTVL | 
> 20 |  | CRTH2-70 (antibody, V domains shown) VH: QVQLVQSGAEVKKPGSSVKVSCKASGGTFSNHAIIWVRQAPGQGLEWMGGIIPIFGTPSYAQKFQGRVTITADESTSTAYMELSSLRSEDTAVYYCARDMYYDFDVISAGVVGAGNPEVVPADDAFDIWGQGTLVTVSS VL: QSVLTQPPSVSAAPGQKVTISCSGSTSNIGNNFVSWYQQLPGTAPKLLIYDNEKRPSGIPDRFSGSKSGTSATLGITGLQTGDEADYYCGTWDERQTDESYVFGGGTKLTVL | 
 | 19 | CRTH2 39 (antibody, V domains shown) VH: QVQLVQSGAEVKKPGSSVKVSCKASVDTFSRYSISWVRQAPGQGLEWMGGIIPVFDTTNYAQKFQGRVTITADESTSTAYMELSSLRSEDTAVYYCARDMYYDFGVILGGTAVGTNNGSANEVVPADDAFDIWGQGTLVTVSS VL: QSVLTQPPSVSAAPGQKVTISCSGSSSNIGDNDVSWYQQLPGTAPKLLIYDDDKRPSGIPDRFSGSKSGTSATLGITGLQTGDEADYYCASWDTSLSGGYVFGGGTKLTVL | 
> 20 |  | CRTH2-42 (antibody) VH: QVQLVESGGGVVQPGRSLRLSCAASGFAFSSYAMHWVRQAPGKGLEWVAVISYEGSNEYYADSVKGRFTISRDNSKNTLYLQMNSLRAEDTAVYYCARDLRELECEEWTVLQYGKFHMRWAESGEGSLSRGPCVDPRGVAGSFDVWGQGTLVTVSS VL: QSALTQPASVSGSPGQSITISCTGTSSDVGGYRYVSWYQQHPGKAPKLMIYNVNYRPSGVSNRFSGSKSGNTASLTISGLQAEDEADYYCSSYRSSSTLGVFGGGTKLTVL | IC50 fold difference of the PGD2 dose response (cAMP) with 100 nM IgG (CRTH2R [1]): > 2 fold
 | 12.6 | CRTH2 35 (antibody, V domains shown) VH: QVQLVQSGAEVKKPGSSVKVSCKASGGTFRSYAISWVRQAPGQGLEWMGGIIPISGTTNYAQKFQGRVTITADESTSTAYMELSSLRSEDTAVYYCARANQHFTRIFGNYQIYFGHFGYHYYGMDVWGQGTLVTVSS VL: QSALTQPASVSGSPGQSITISCTGTSSDIGGYEFVSWYQQHPGKAPKLMIYGVSRRPSGVSNRFSGSKSGNTASLTISGLQAEDEADYYCGSYTSSSTPYVFGGGTKLTVL | 
> 20 | 73.8 | CRTH2-15 (antibody, V domains shown, CRTH2R IgG) VH: QVQLVQSGAEVKKPGSSVKVSCKASGGTFSTYAIDWVRQAPGQGLEWMGGIIPLFGSPNYAQKFQGRVTITADESTSTAYMELSSLRSEDTAVYYCARANQHFFLYEGTSSSWLHVGHARYGYHYYGMDVWGQGTLVTVSS VL: QSVLTQPPSVSAAPGQKVTISCSGSGSNIGSNYVSWYQQLPGTAPKLLIYDNIRRPSGIPDRFSGSKSGTSATLGITGLQTGDEADYYCAAWDTRLSAGVFGGGTKLTVL | 
 | 158 | CRTH2 57 (antibody, V domains shown) VH: QVQLVQSGAEVKKPGSSVKVSCKASGGTFSSYAMSWVRQAPGQGLEWMGGIIPLFGTTDYAQKFQGRVTITADESTSTAYMELSSLRSEDTAVYYCARANQHFVKIQGAPVSTPVPGFGTTGYHYYGMDVWGQGTLVTVSS VL: QSVLTQPPSVSAAPGQKVTISCSGSSSNIEDNYVSWYQQLPGTAPKLLIYDNFKRPSGIPDRFSGSKSGTSATLGITGLQTGDEADYYCGTWDTSLSAALFGGGTKLTVL | 
> 20 |  | CRTH2-60 (antibody, V domains shown) VH: QVQLVQSGAEVKKPGSSVKVSCKASGGTFKNYAINWVRQAPGQGLEWMGAIIPKFGAANYAQKFQGRVTITADESTSTAYMELSSLRSEDTAVYYCARANQHFSAVRGLAFGYGYRIGGYHYYGMDVWGQGTLVTVSS VL: QSVLTQPPSVSAAPGQKVTISCSGSTSNIGINYVSWYQQLPGTAPKLLIYENRKRPSGIPDRFSGSKSGTSATLGITGLQTGDEADYYCATWDASLKNLVFGGGTKLTVL | 
> 20 | 135 | CRTH2-8 (antibody, V domains shown, CRTH2R IgG) VH: QVQLVQSGAEVKKPGSSVKVSCKASGGTFTDYAISWVRQAPGQGLEWMGGIIPFFGSPNYAQKFQGRVTITADESTSTAYMELSSLRSEDTAVYYCARDMYYDFAAGLEGTITEVFDEEGHQGGTEVVPADDAFDIWGQGTLVTVSS VL: QSVLTQPPSVSAAPGQKVTISCSGSSSNIGKNYVSWYQQLPGTAPKLLIYDNNQRPSGIPDRFSGSKSGTSATLGITGLQTGDEADYYCGTWDTSLTSVVFGGGTKLTVL | 
 | 3.95 | CRTH2 66 (antibody) heavy chain (variable domain given): QVQLVESGGGVVQPGRSLRLSCAASGFDFSGYGMHWVRQAPGKGLEWVAVISYEGSNKFYADSVKGRFTISRDNSKNTLYLQMNSLRAEDTAVYYCARDLRELECEEWTIEVHGQEFAVHQDRGGVFSRGPCVDPRGVAGSFDVWGQGTLVTVSS light chain (variable domain given): EIVMTQSPATLSVSPGERATLSCRASQGVGSNLAWYQQKPGQAPRLLIYRTSIRATGIPARFSGSGSGTEFTLTISSLQSEDFAVYYCQQYYSWPPLTFGGGTKVEIK | 
> 20 |  | CRTH2-24 (antibody, V domains shown) VH: QVQLVQSGAEVKKPGSSVKVSCKASGGSFSNYGISWVRQAPGQGLEWMGGIIPLIGTANYAQKFQGRVTITADESTSTAYMELSSLRSEDTAVYYCARDMYYDFTLGPQSIGPLGEVVPADDAFDIWGQGTLVTVSS VL: QSVLTQPPSVSAAPGQKVTISCSGSSSNIGNNFVSWYQQLPGTAPKLLIYDNIQRPSGIPDRFSGSKSGTSATLGITGLQTGDEADYYCGTWDTSLSAVVFGGGTKLTVLR | 
 |  | TIGIT-55-05 (antibody, V domains shown, hTIGIT IgG) VH: EVQLLESGGGLVQPGGSLRLSCAASGFVFSSYAMNWVRQAPGKGLEWVSTVSGSGGTTYYADSVKGRFTISRDNSKNTLYLQMNSLRAEDTAVYYCARAPYSSSSWFDYWGQGTLVTVSS VL: DIQMTQSPSSLSASVGDRVTITCRASQSVRSYLNWYQQKPGKAPKLLIYTATSLESGVPSRFSGSGSGTDFTLTISSLQPEDFATYYCQQSYGLPRTFGGGTKVEIK | Kd (human TIGIT): 97.6 nM
> 20 | 23.2 | CRTH2-45 (antibody, CRTH2R IgG) VH: QVQLVESGGGVVQPGRSLRLSCAASGFTFSHYAMHWVRQAPGKGLEWVADISHEGSNKYYADSVKGRFTISRDNSKNTLYLQMNSLRAEDTAVYYCARDGRGSLPRPKGGPTSGGGFSTNIGYGFVVQSYDSSEDSGGAFDIWGQGTLVTVSS VL: QSVLTQPPSVSAAPGQKVTISCSGTSSNIENNYVSWYQQLPGTAPKLLIYDNVKRPSGIPDRFSGSKSGTSATLGITGLQTGDEADYYCGTWDNTVSAPWVFGGGTKLTVL | 
> 20 | 16.7 | CRTH2-19 (antibody, V domains shown, CRTH2R IgG) VH: QVQLVQSGAEVKKPGSSVKVSCKASGGTFSSHAINWVRQAPGQGLEWMGRIIPIVGTTTYAQKFQGRVTITADESTSTAYMELSSLRSEDTAVYYCARDMYYDFDYFGLTLTGDRNDDEVVPADDAFDIWGQGTLVTVSS VL: QSALTQPASVSGSPGQSITISCTGTSSDVGGYDYVTWYQQHPGKAPKLMIYDVDTRPSGVSNRFSGSKSGNTASLTISGLQAEDEADYYCSSYTTSTSYVFGGGTKLTVL | 
 |  | TIGIT-55-01 (antibody, V domains shown, hTIGIT IgG) VH: EVQLLESGGGLVQPGGSLRLSCAASGFTFGSYGMSWVRQAPGKGLEWVSSISGSGSTTYYADSVKGRFTISRDNSKNTLYLQMNSLRAEDTAVYYCARVAGSSGWAFDYWGQGTLVTVSS VL: DIQMTQSPSSLSASVGDRVTITCRASQAISNYLNWYQQKPGKAPKLLIYAASRLQSGVPSRFSGSGSGTDFTLTISSLQPEDFATYYCQESYSTPFTFGGGTKVEIK | Kd (human TIGIT): 15.9 nM
 |  | TIGIT-55-02 (antibody, V domains shown, hTIGIT IgG) VH: EVQLLESGGGLVQPGGSLRLSCAASGLTFSNYAMTWVRQAPGKGLEWVSGISRSGGSTYYADSVKGRFTISRDNSKNTLYLQMNSLRAEDTAVYYCATLRLYSSGGGIDYWGQGTLVTVSS VL: DIQMTQSPSSLSASVGDRVTITCRASQYISTYLNWYQQKPGKAPKLLIYAASSLQGGVPSRFSGSGSGTDFTLTISSLQPEDFATYYCQQNYITPLTFGGGTKVEIK | Kd (human TIGIT): 141 nM

Reference: patent US20210102195A1 (TWIST BIOSCIENCE, published 2021)
